Test results: paper PMC10183829, “Shuffled ATG8 interacting motifs form an ancestral bridge between UFMylation and autophagy” (The EMBO Journal, 2023)
Numbering of substitutions follows the chain as printed.

Experiments:
HsUFM1 = assay: Isothermal titration calorimetry, HsUFM1 titrated with HsC53wt; type: binding, Homo sapiens; conditions: 40 μM HsUFM1 in cell, 300 or 550 μM HsC53wt in syringe
Experimental: (§1) All experiments were carried out at 25°C in 50 mM sodium phosphate buffer pH 7.0, 100 mM NaCl, using the PEAQ‐ITC Automated (Malvern Panalytical Ltd). For protein–protein interactions, the calorimetric cell was filled with either GABARAP or HsUFM1 and titrated with either HsC53 wt, HsC53 sAIM, HsC53 cAIM, or HsUBA5 LIR. A single injection of 0.4 μl of HsC53 or AtC53 IDRs (not taken into account) was followed by 18 injections of 2 μl each. Injections were made at 150‐s intervals with a duration of 4 s and a stirring speed of 750 rpm. The reference power was set to 10 μcal/s; the feedback mode was set to high. The raw titration data were integrated with NITPIC (Keller et al, [2012]), globally fitted with SEDPHAT (Zhao et al, [2015]), and plotted with GUSSI (Brautigam, [2015]).

[1] = tested on: GST-HsUFM1 / mCh-HsC53 interaction; assay: On-bead competition of the HsUFM1-HsC53 interaction; type: binding, Homo sapiens; conditions: 1 μM HsC53; cAIM peptide 0-100 μM; UBA5 LIR peptide or GABARAP 100 μM
Experimental: (§2) Glutathione‐Sepharose 4B bead slurry (Cytiva, average diameter 90 μm) was washed and diluted 10 times in HEPES buffer (25 mM HEPES pH 7.5, 150 mM NaCl, 1 mM DTT). The beads were then incubated for 30 min at 4°C (16 rpm horizontal rotation) with GST‐tagged bait proteins (2 μM of GST, GST‐FIP200 CD, GST‐ATG8A, GST‐GABARAP, GST‐AtUFM1, and GST‐HsUFM1). The beads were washed five times in 10 times the bead volume of HEPES buffer. The buffer was removed, and the beads were resuspended 1:20 in HEPES buffer. 10 μl of diluted beads was mixed with 20 μl of mCherry‐tagged binding partner at a concentration of 1.5 μM (0.5 μl bead slurry and 1 μM binding partner final concentrations) with or without competitor, as stated in the relative experiment. […]
(§3) From images acquired from a Zeiss LSM700 confocal microscope, the quantification of fluorescence was performed in ImageJ (Schindelin et al, [2012]) by drawing a line across each bead and taking the maximum gray value along the line. The maximum gray value for any given pixel represents the fluorescence intensity.
(§4) For images acquired from a Zeiss LSM800 confocal microscope, we used a custom Fiji Macro. […] In the end, the mean fluorescent intensities were exported out and used for quantification.
(§5) For each method, the fluorescence intensity was normalized against the mean of the control condition.

GABARAP = assay: Isothermal titration calorimetry, GABARAP titrated with HsC53 variants; type: binding, human; conditions: ITC, 25°C, 50 mM sodium phosphate pH 7.0, 100 mM NaCl; GABARAP 40 or 70 μM in cell; global analysis of 5 titrations, hetero-association model A + B; read-out: KD, best-fit value (ITC, GABARAP)
Experimental: as §1

GST-ATG8A = assay: Microscopy-based on-bead protein-protein interaction assay, GST-ATG8A beads; type: binding, Arabidopsis thaliana; conditions: 1 μM mCherry-tagged C53 (AtC53 variants per Appendix Fig S10A); normalized fluorescence; mean average; 3 replicates
Experimental: as §2, §3, §4, §5

GST-GABARAP = assay: Microscopy-based on-bead protein-protein interaction assay, GST-GABARAP beads; type: binding, human; conditions: 1 μM mCherry-tagged C53 (HsC53 variants per Appendix Fig S10B); normalized fluorescence; mean average; 3 replicates
Experimental: as §2, §3, §4, §5

[2] = tested on: HsFIP200 Claw domain (CD); assay: Microscopy-based on-bead protein-protein interaction assay, GST-FIP200 CD beads; type: binding, Homo sapiens; conditions: 1 μM HsC53 variant, 2 independent replicates containing 2 technical replicates
Experimental: as §2, §3, §4, §5

B1: HsC53^wt: recombinant Homo sapiens C53 (CDK5RAP3), wild type (protein)
chain: MEDHQHVPIDIQTSKLLDWLVDRRHCSLKWQSLVLTIREKINAAIQDMPESEEIAQLLSGSYIHYFHCLRILDLLKGTEASTKNIFGRYSSQRMKDWQEIIALYEKDNTYLVELSSLLVRNVNYEIPSLKKQIAKCQQLQQEYSRKEEECQAGAAEMREQFYHSCKQYGITGENVRGELLALVKDLPSQLAEIGAAAQQSLGEAIDVYQASVGFVCESPTEQVLPMLRFVQKRGNSTVYEWRTGTEPSVVERPHLEELPEQVAEDAIDWGDFGVEAVSEGTDSGISAEAAGIDWGIFPESDSKDPGGDGIDWGDDAVALQITVLEAGTQAPEGVARGPDALTLLEYTETRNQFLDELMELEIFLAQRAVELSEEADVLSVSQFQLAPAILQGQTKEKMVTMVSVLEDLIGKLTSLQLQHLFMILASPRYVDRVTEFLQQKLKQSQLLALKKELMVQKQQEALEEQAALEPKLDLLLEKTKELQKLIEADISKRYSGRPVNLMGTSL
modifications: left off: His6, N-terminal, state not stated
notes: recombinant Homo sapiens C53 (CDK5RAP3), wild type
Binding to UFM1 by ITC (in words) (HsUFM1): did not detect appreciable binding

B2: GABARAP: human ATG8 isoform GABARAP, used at 100 µM as competitor (protein)
chain: MKFVYKEEHPFEKRRSEGEKIRKKYPDRVPVIVEKAPKARIGDLDKKKYLVPSDLTVGQFYFLIRKRIHLRAEDALFFFVNNVIPPTSATMGQLYQEHHEEDFFLYIAYSDESVYGL
modifications: left off: GST, N-terminal, kept
Competition of the HsC53-HsUFM1 interaction (in words) [1]: able to disrupt

B3: C53^cAIM: text label without species: HsC53^cAIM with GABARAP (ITC, beads), AtC53^cAIM with GST-ATG8 (protein)
chain: B1 chain with I267W, W269G, G270I, I292W, W294G, G295I, I310W, W312G, G313I
Kd (GABARAP): 11.2 µM | Recruited more efficiently to GST-ATG8 than the respective C53 wild-type protein (GST-ATG8A): 22% | Recruited more efficiently to GST-GABARAP than the respective C53 wild-type protein (GST-GABARAP): 35%

B4: HsC53^cAIM: HsC53^(IDWG267WDGI, IDWG292WDGI, IDWG310WDGI) (protein)
chain: B1 chain with I267W, W269G, G270I, I292W, W294G, G295I, I310W, W312G, G313I
FIP200 interaction compared with C53 wild type (in words) [2]: stronger interaction
